± gives the standard error. Fewer inactive variants are shown than the library holds.
B1: glmS ribozyme (parent)
chain: AUAAAAGCGCCAGAACUACAGAAAUGUAGUUGACGAGGAGGAGGUUUAUCGAAUUUUCGGCGGAUGCCUCCAAA

Key:
Settings in all cases: with glucosamine-6-phosphate
[1] = variants of: B1; assay: self-cleavage kobs at 640 uM GlcN6P; higher = faster cleavage; RNA array
How it was run: (§1)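 Over ~14 h at 37 °C, tiles were imaged as glucosamine-6-phosphate (40 μM to 10 mM) in HEPES/KCl/Mg(OAc)2 buffer flowed across sequenced MiSeq chips. The chips carried barcoded ribozyme variants transcribed in situ by E. coli RNA polymerase and tracked with a hybridised Cy3 probe. After normalisation to baseline and to non-cleaving reference variants, one- or two-exponential decay fits of per-tile medians gave kobs. kcat and KM followed from weighted Michaelis–Menten fits across concentrations.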

[2] = variants of: B1; assay: self-cleavage kobs at 2500 uM GlcN6P; higher = faster cleavage; RNA array
How it was run: as §1

[3] = variants of: B1; assay: self-cleavage kobs at 10000 uM GlcN6P; higher = faster cleavage; RNA array
How it was run: as §1

Variant | self-cleavage kobs at 640 uM GlcN6P [1] | self-cleavage kobs at 2500 uM GlcN6P [2] | self-cleavage kobs at 10000 uM GlcN6P [3]
AUAAAAGCGCCAGAACUACAGAAAUGUAGUUGACGAGGAAGAGGUUUAUCAAAUUUUCAGCGGAUGCCUCCAAA | < 1e-05 s⁻¹ | – | –
AUAAAAGCGCCAGAACUACAGAAAUGUAGUUGACGAGGUGGAGGUUUAUCGAAUUUUCGGCGGAUGAUUCCAAA | 3.93e-05 ± 1.2e-05 s⁻¹ | 0.000112 ± 3e-05 s⁻¹ | –
AUAAAAGCGCCAGAACUACAGAAAUGUAGUUGACGAGGACAAUGUUUAUCGAAUUUUCGGCGGAUGCCUCCAAA | < 1e-05 s⁻¹ | – | –
AUAAAAGCGCCAGAACUACAGAAAUGUAGUUGACGAGGGUGAGGUUUAUUGAAUUUUCGGCGGAUGCCUCCAAA | < 1e-05 s⁻¹ | < 1e-05 s⁻¹ | < 1e-05 s⁻¹
AUAAAAGCGCCAGAACUACAGAAAUGUAGUUGACGAGGGGGAGAUUUAUCGAAUUUUAGGCGGAUGCCUCCAAA | < 1e-05 s⁻¹ | – | –
AUAAAAGCGCCAGAACUACAGAAAUGUAGUUGACGAGGAUGAGUUUUAUCGAAUUUUCGGCGGAUGCUUCCAAA | < 1e-05 s⁻¹ | – | –
AUAAAAGCGCCAGAACUACAGAAAUGUAGUUGACGAGGAUGAGGUUUAUCGAAUUUUCGGCGGAGGCCUCCAAA | 0.000417 ± 0.00014 s⁻¹ | 0.00108 ± 0.00028 s⁻¹ | 0.0019 ± 0.00044 s⁻¹
AUAAAAGCGCCAGAACUACAGAAAUGUAGUUGACGAGGUGGCGGUUUAUGGAAUUUUCGGCGGAUGCCUCCAAA | < 1e-05 s⁻¹ | – | < 1e-05 s⁻¹
AUAAAAGCGCCAGAACUACAGAAAUGUAGUUGACGAGGAAGAGGAUUAUCGAAUUUUCGGCGGAUGCCUUCAAA | 4.7e-05 ± 2.2e-05 s⁻¹ | 7.49e-05 ± 2.1e-05 s⁻¹ | –
AUAAAAGCGCCAGAACUACAGAAAUGUAGUUGACGAGGAUGAGGUUCAUCGACAUUUCGGCGGAUGCCUCCAAA | 7.34e-05 ± 2.8e-05 s⁻¹ | 0.000202 ± 3.7e-05 s⁻¹ | –
AUAAAAGCGCCAGAACUACAGAAAUGUAGUUGACGAGGGGGAGGUUUAUCGAAUUUUCGGCGGCUGCCGCUAAA | < 1e-05 s⁻¹ | < 1e-05 s⁻¹ | –
AUAAAAGCGCCAGAACUACAGAAAUGUAGUUGACGAGGACGAGGUUUAUCGAAUUCUCGGCGGCUGCCUACAAA | < 1e-05 s⁻¹ | – | –
AUAAAAGCGCCAGAACUACAGAAAUGUAGUUGACGAGGAUCAGGUUUAUCGAAUUUUCGGCGGAUGCCUACAAA | 6.65e-05 ± 1.8e-05 s⁻¹ | 0.000546 ± 0.00013 s⁻¹ | –
AUAAAAGCGCCAGAACUACAGAAAUGUAGUUGACGAGGUGUAGGUUAAUCGCAUUUUCGGCGGAUGCCUCCAAA | < 1e-05 s⁻¹ | < 1e-05 s⁻¹ | –
AUAAAAGCGCCAGAACUACAGAAAUGUAGUUGACGAGGUGGAGGUUUACCGAAUUUUCGGCGGAUGCGUCCAAA | < 1e-05 s⁻¹ | < 1e-05 s⁻¹ | < 1e-05 s⁻¹
AUAAAAGCGCCAGAACUACAGAAAUGUAGUUGACGAGGUGGACAUUUAUCUAAUUUUCGGCGGAUGCCUCCAAA | < 1e-05 s⁻¹ | < 1e-05 s⁻¹ | –
AUAAAAGCGCCAGAACUACAGAAAUGUAGUUGACGAGGAUGAGGUUUAUAAAAUUUUCGGCGGAUGCCUCCAAA | < 1e-05 s⁻¹ | – | –
AUAAAAGCGCCAGAACUACAGAAAUGUAGUUGACGAGGGGGAGGUCGAUCGAAUUUUCGGCGGAAGCCUCCAAA | 0.0001 ± 3.8e-05 s⁻¹ | – | –
AUAAAAGCGCCAGAACUACAGAAAUGUAGUUGACGAGGUGGGGGUUUAUCGAAUUUUCGGCGGAGGCCUCCAAA | 0.000684 ± 0.00016 s⁻¹ | – | –
AUAAAAGCGCCAGAACUACAGAAAUGUAGUUGACGAGGAAGAGGCUUAUAGAAUUUUCGACGGAUGACUCCAAA | < 1e-05 s⁻¹ | < 1e-05 s⁻¹ | –
AUAAAAGCGCCAGAACUACAGAAAUGUAGUUGACGAGGUGGCGGUUUAGCGAAUUUUCGGCGGAUGCCUCCAAA | < 1e-05 s⁻¹ | – | –
AUAAAAGCGCCAGAACUACAGAAAUGUAGUUGACGAGGACGAUGUUUAUCGAAUCUUCGGCGGAUGCCUCCAAA | < 1e-05 s⁻¹ | < 1e-05 s⁻¹ | –

Variant | self-cleavage kobs at 640 uM GlcN6P [1] | self-cleavage kobs at 2500 uM GlcN6P [2] | self-cleavage kobs at 10000 uM GlcN6P [3]
AUAAAAGCGCCAGAACUACAGAAAUGUAGUUGACGAGGAUGAGGUUUAUCGAAUAUUCGGCGGAUGCCUCAAAA | 0.00279 ± 0.00086 s⁻¹ | – | 0.0227 ± 0.0049 s⁻¹
AUAAAAGCGCCAGAACUACAGAAAUGUAGUUGACGAGGAAGUGGUUUUUCGAAUUUUCGGCGGAUGCCUCCAAA | < 1e-05 s⁻¹ | – | –
AUAAAAGCGCCAGAACUACAGAAAUGUAGUUGACGAGGAGAAGGUUUAUCUAAUUUUCGGCGGAUGCUUGCAAA | < 1e-05 s⁻¹ | < 1e-05 s⁻¹ | –
AUAAAAGCGCCAGAACUACAGAAAUGUAGUUGACGAGGAUGAGGUUUAUAGAAUUUUCGGCGGAUGGCUCCAAA | < 1e-05 s⁻¹ | – | –
AUAAAAGCGCCAGAACUACAGAAAUGUAGUUGACGAGGAUGAGGUUUAUUGAAUUUUCGGCGAAUGACUCCAAA | < 1e-05 s⁻¹ | < 1e-05 s⁻¹ | –
AUAAAAGCGCCAGAACUACAGAAAUGUAGUUGACGAGGAAGAGGUUUAUCGAAUUUCAGGUGGAUGCCUCCAAA | < 1e-05 s⁻¹ | – | –
AUAAAAGCGCCAGAACUACAGAAAUGUAGUUGACGAGGAGAGGGGUUAUCGAAUUUUCGGCGGAUGCCUCCAAA | 0.0066 ± 0.002 s⁻¹ | – | –
AUAAAAGCGCCAGAACUACAGAAAUGUAGUUGACGAGGUGGCGGUUUAUCGAUUUUUUGGCGGAUGCCUCCAAA | < 1e-05 s⁻¹ | < 1e-05 s⁻¹ | –
AUAAAAGCGCCAGAACUACAGAAAUGUAGUUGACGAGGAGAAGGUUUCUCGUAUUUUCGGCGGAUGCCUCCAAA | < 1e-05 s⁻¹ | – | –
AUAAAAGCGCCAGAACUACAGAAAUGUAGUUGACGAGGUGUAGGUUUAUCGAAUUGUCGGCGGAUGCCUCCAAA | 6.4e-05 ± 1.9e-05 s⁻¹ | 0.000106 ± 2.3e-05 s⁻¹ | –
AUAAAAGCGCCAGAACUACAGAAAUGUAGUUGACGAGGCGGAGGUUUAUCGAAUGUUCGGCGGAUGUCUCCAAA | 7.28e-05 ± 1.4e-05 s⁻¹ | – | –
AUAAAAGCGCCAGAACUACAGAAAUGUAGUUGACGAGGAUGAGGUCUAUCGAAUGUUCGGCGGAUGCCUCCAAA | 0.000194 ± 6.6e-05 s⁻¹ | – | –
AUAAAAGCGCCAGAACUACAGAAAUGUAGUUGACGAGGCGGAGGUUUAUCGAAUUCUCGGCGGAUGCCUCCAAA | 0.00018 ± 3.3e-05 s⁻¹ | 0.000456 ± 0.00015 s⁻¹ | 0.00101 ± 0.00021 s⁻¹
AUAAAAGCGCCAGAACUACAGAAAUGUAGUUGACGAGGAAAAGGUUUAUCGAAUUUUCGGCGGAUGCCUCAAAA | 6.52e-05 ± 1.3e-05 s⁻¹ | 9.76e-05 ± 1.9e-05 s⁻¹ | –
AUAAAAGCGCCAGAACUACAGAAAUGUAGUUGACGAGGAUGAGGUCUAUCGAUUUUUCGGCGGAUGCCUCCAAA | 0.000351 ± 0.00012 s⁻¹ | – | 0.000745 ± 0.00019 s⁻¹
AUAAAAGCGCCAGAACUACAGAAAUGUAGUUGACGAGGAGAAGAUUUAUCGAAUUUUCGACGGAUGCCUCCAAA | < 1e-05 s⁻¹ | – | –
AUAAAAGCGCCAGAACUACAGAAAUGUAGUUGACGAGGUGGAGGUGUAUUGAACUUUCGGCGGAUGCCUCCAAA | < 1e-05 s⁻¹ | – | –
AUAAAAGCGCCAGAACUACAGAAAUGUAGUUGACGAGGAAGAGGUUUAUCGAAUUUACGGCGGAUGCCUCUAAA | 6.1e-05 ± 2.3e-05 s⁻¹ | 0.000149 ± 3.4e-05 s⁻¹ | –
AUAAAAGCGCCAGAACUACAGAAAUGUAGUUGACGAGGACGAGGUUUAUCGAAUUUUCGGCGGAUACCUACAAA | 9.02e-05 ± 2.4e-05 s⁻¹ | 0.000246 ± 6.6e-05 s⁻¹ | 0.000559 ± 0.0001 s⁻¹
AUAAAAGCGCCAGAACUACAGAAAUGUAGUUGACGAGGAAGGGGUAUAUCGAAUUUUCGGCGGAUGCCUCCAAA | 0.000129 ± 4.5e-05 s⁻¹ | 0.000599 ± 0.0003 s⁻¹ | 0.00096 ± 0.00023 s⁻¹
AUAAAAGCGCCAGAACUACAGAAAUGUAGUUGACGAGGACGAGGUUUAUUGAAUUUUCGCCGGAUGCCUCCAAA | < 1e-05 s⁻¹ | – | < 1e-05 s⁻¹
